Target: pyruvate kinase M2 (PKM2) (human (endogenous in monocytes and macrophages)) (UniProt P14618)
Test: cross-linking

Sequence of pyruvate kinase M2 (PKM2), P14618 1-531 (enzyme; other documents disagree on this pair) (P14618 whole entry): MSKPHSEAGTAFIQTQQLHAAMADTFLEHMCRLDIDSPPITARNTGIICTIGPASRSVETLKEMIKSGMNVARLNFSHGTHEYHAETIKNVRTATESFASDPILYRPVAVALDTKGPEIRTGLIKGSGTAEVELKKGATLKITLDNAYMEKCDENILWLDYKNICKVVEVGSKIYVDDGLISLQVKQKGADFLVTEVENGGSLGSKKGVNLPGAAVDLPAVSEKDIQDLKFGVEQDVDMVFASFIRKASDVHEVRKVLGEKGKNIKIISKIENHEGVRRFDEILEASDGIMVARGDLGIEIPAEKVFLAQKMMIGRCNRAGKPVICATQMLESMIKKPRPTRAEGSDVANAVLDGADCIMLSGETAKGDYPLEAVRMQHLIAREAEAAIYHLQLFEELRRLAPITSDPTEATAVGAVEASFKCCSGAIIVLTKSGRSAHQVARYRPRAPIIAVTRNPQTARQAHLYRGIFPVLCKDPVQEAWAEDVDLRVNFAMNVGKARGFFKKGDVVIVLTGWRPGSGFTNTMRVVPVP

Q: For “pyruvate kinase M2 (PKM2), P14618 1-531 (enzyme; other documents disagree on this pair)”, which stoichiometry N is on record?
A: The stoichiometry N was 2.

Source: paper PMC4813677
